Assay: yeast display, Sf9 membrane polyspecificity reagent, FACS + sequencing; frameworks hold sequencing errors
Summary of the method: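 Nanobodies from a synthetic yeast display library (Saccharomyces cerevisiae BJ5465), induced 36–48 hours with galactose, were stained 1 hour at 4 °C with 10% biotinylated, detergent-solubilized Sf9 membrane reagent, enriched on streptavidin microbeads, then FACS-sorted. Anti-HA (expression) and streptavidin (reagent binding) fluorescence set low and high (top ~1%) gates. Polyreactivity labels come from the gate of origin. Genes were colony-PCR amplified, MiSeq 2 × 250 sequenced and filtered by CDR length.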

Row | Sequence | polyreactivity (PSR sort gate)
1 | QVQLVESGGGLVQAGGSLRLSCAASGSIFRGNAMGWYRQAPGKERELVAAINKSGGSTYYADSVKGRFTISRDNAKNTVYLQMNSLKPEDTAVYYCAAVYKRLQPYGYWGQGTQVTVSS | high polyreactivity
2 | QVQLVESGGGLVQAGGSLRLSCAASGFIFGYNAMGWYRQAPGKERELVATISWSGGSTYYADSVKGRFTISRDNAKNTVYFQMNSLKPEDTAVYYCAAEGWERLGCVSWVTVDYWGQGTQVTVSS | low polyreactivity
3 | QVQLVESGGGLVQAGGSLRLSSAASGYFNFFYAMGRYRQAPGKERELVASITYRGGSTYYADSVKGRFTLSRDNSKNTVYLQMNRLKPEDTAVYYCNVDGGGPLGPQGFPFDYWGQGTQVTVSS | low polyreactivity
4 | QVQLVESGGGLVQAGGSLRLSCAASGSIFGIYAMGWYRQAPGKERELVAAISSSGSTNYADSVKGRFTISRDNAKNTVYLQMNSLKPEDTAVYYCAAEQLSARWAYYYWGQGTQVTVSS | low polyreactivity
5 | QVQLVESGGGLVQAGGSLRLSCAASGRIFYGYAMGWYRQAPGKERELVAAITSGSRTNYADSVKGRFTISRDNAKNTVYLQMNSLKPEDTAVYYCHSRYGSYLYSLVHNTRYDYWGQGTQVTVSS | low polyreactivity
6 | QVQLVESGGGLVQAGGSLRLSCAASGFTFRENTMGWYRQAPGKERELVASISWSGGSTYYADSVKGRFTISRDNAKNTVYLQMNSLKPEDTAVYYCAATYAWLSKGYRGMDYWGQGTQVTVSS | low polyreactivity
7 | QVQLVESGGGLVQAGGSLRLSCAASGSTFERYAMGWYRQAPGKEREFVATINWGGGSTYYADSVKGRFTISRDNAKNTVYLQMNSLKPEDTAVYYCNAYVLYQSWRFSYDCWGQGTQVTVSS | low polyreactivity
8 | QVQLVESGGGLVQAGGSLRLSCAASGGIFWYYTMGWYRQAPGKERELVATISSGGRTYYADSVKGRFTISRDNAKNTVYLQMNSLKPEDTAVYYCAAVGWYNDYYWGQGTQVTVSS | high polyreactivity
9 | QVQLVESGGGLVKAGCSLRLSCADSGFIFSSYAMGWYRQAPGIERELVAAITRSGGITYYADSLKGRFTISRDNAKITVYLQMNSLKPEDTAVYYCAARWRYYRGYSRQRPYEFDYWGQGTQVTVSA | high polyreactivity
10 | QVQLVESGGGLVQAGGSLRLSCAASGSIFVHYALGWYRQAPGKERELVAAITVTGGTTYYADSVKGRFTISRDNAKNTVYLQMNSLKPEDTAVYYCATRANDGGWTQFGHGYDYWGQGTQVTVSS | low polyreactivity
11 | QVQLVESGGGLVQAGGSLRLSCAAAGIIFTGYAMGWYRQAPGKERELVAAITASGGRTYYADSVKGRYTISRDNAKNTVYLQMNSLKPEDTAVYYCNAVPTVLRVLKYDYWGQGTQVTVSS | high polyreactivity
12 | QVQLVESGGGLVQAGGSLRLSCAASGFIFRWYAMGWYRQAPGKERELVASITRGGSTNYADSVKGRFTISRDNAKNTVYLQMNSLKPEDTAVYYCAAGWRRAAGIQYWYGYWGQGTQVTVSS | high polyreactivity
13 | QVQLVESGGGLVQAGGSLRLSCAASGNTFTFYAMGWYRQAPGKERELVASITGRGGSTYYADSVKGRFTISRDNAKNTVYLQMNSLKPEDTAVYYCNADYNSYRYRPPTTRDYWGQGTQVTVSS | low polyreactivity
14 | QVQLVESGGGLVQAGGSLRLSCAASGRIFYANAMGWYRQAPGKERELVAAISWSGGSTYYADSVKGRFTISRDNAKNTVYLQMNSLKPEDTAVYYCNALGRSYRSRRYDYWGQGTQVTVSS | high polyreactivity
15 | QVQLVESGGGLVQAGGSLRLSCAATGIIFHRYVMGWYRQAPGKERELVAVITQRGGSTYYADSVKGRFTISRDNAKNTVYLQMNSLKQEDTAVYYCAARSQYRDRTGQYGYWGQGSQVTVSS | high polyreactivity
16 | QDQLVESGGGLVQAGGSLRLSCAASGRTFWYYAMGWYRQATGKERELVAAISSRGGTTYYADSVKGRFTISRDNAKNTVYLQMNSVKPEDTAVYYCASERWDLWLLYDYWGQGTQVTVSS | high polyreactivity
17 | QVQLVESGGGLLQAGGSLRLSCAASGRIFRGYAMGWYRQAPGKESELVAGITSGGSTKYADSVKGRFTISRDNAKNTVYLQMNSLKPEDTAVYYCAKGYLPYSYYARPYIRYYWGQGTQVTVSS | high polyreactivity
18 | QVQLVESGGGLVQAGGSLRLSCAASGSTFPGNSMGWYRQAPGKEMELVAAIDTSGGSTYYADSVKWRFTISRDNAKNTVYLQINSLKPEDTAVYYCAADYLIEMDYWGQGTQVTVSS | low polyreactivity
19 | QGQLVESGGGLVQAGGSLRLSCAASGRTFYRYAMGWYRQAPGKERELVAAITRRGDSTSYADSVKGRFTISRDNAKNTVYLQMNSLKPEDTAVYYCATLVQGSVYGLYGGGYWGQGTQVTVSS | low polyreactivity
20 | QVQLVESGGGLVQAGGSLRLSCAASGSTFVVYAMGWSRQAPGKERELVAAISTSDTSTYYADSVKGRFTISRDNAKNTVYLQMNSLKPEDTAVYDCAADGTYVYINEYEYWGQGTQVTVSS | low polyreactivity

Row | Sequence | polyreactivity (PSR sort gate)
21 | QVQLVESGGGLVQAGGSLRLSCAASGSTFVSYAMGWYRQAPGKEREFVAAITWSGGSTYYADSVKGRFTISRDNAKNTVYLQMNRLKPEDTAVYYFARPYRGSPRYYYWGQGTQVTVSS | high polyreactivity
22 | QVHLVESGGGLVQAGGSLRLSCAASGSIFGYNTMGWYRQAPGKERELVATISGSGGSSYYADSVKGRFTISRDNAKNTVYLQMNSLKPEDTSVYYCAARAYSRYRRTYDYWGQGTQVTVSS | high polyreactivity
23 | QVQLVESGGGLVQAGGSLRLSCAASGRTFRGYAMGWYRQAPGKEREFVAAITWTSGSTYYADSVKGRFTISRDNAKNTVYLQMNSLKPEDTAVYYCAARVYSQALRLWGNNYWGQGTQVTVSS | high polyreactivity
24 | QVQLVESGGGLVQAGGSLRLSCAASGSTFAYYAMGWYRQAPGKERELVASISWRGGSTYYAESVKGRFTISRDNAKNTVYLQMNSLKPEDTAVYYCAAGRFYTWSRSQEYDYWGQGTQVTVSS | low polyreactivity
25 | QVQLVESGGGLVQAGGSLRLSCAASGSTFAYYAMGWYRPAPGTERELVAAISKSGGSTYYADSVKGRFTISRDNAKNTFYIQMISLKPEDTAVYYCAAGKFRYRSRFDFWGQGTQVTVSS | high polyreactivity
26 | QVQLVESGGGLVQAGGSLRLSCAASGYIFWYNAMGWYRQAPGKERELVAAISRSGGRTYYADSVKGRCTISRDNAKNTVYLQMNSLKPDDTAVYYCAAGSSHHYVYEGGYWGQGTQVTVSS | low polyreactivity
27 | QVQLVESGGGLVQAGGSLRLSCAASGNTFYKYAMRWYRQAPGKERELVADISWSGGSTYYADSVKGRFTISRDNAKNTVYLQMNSLKPEDTAVYYCNADTPVWDGHAYPVDYWGQGTQVTVSS | low polyreactivity
28 | QVQLVESGGGLVQAGGSLRLSCAASGSTFLYYGMGWYRQAPGKERALVAGIDGTGSSTYYADSVKGRFTISRDNAKNTVYLQMNSLKPEDTAVYYCAKRYPRYRSRYYYWGQGTQVTVSS | low polyreactivity
29 | QVQLVESGGGLVQAGGSLRLSCAASRITFSLYAMGWYRQAPGKERELGAAISRGGSTKYADSVKGRFTISRDNAKNTVYLQMNSLKPEDTAVYYCNASARTYGGQTWNYYWGQGTQVTVSS | high polyreactivity
30 | QVQLVESGGGLVQAGGSLRLSCAASGSTFSTNAMGWFIQAPGKARELVAGISRSGGRTYYADSVKGRFTISRDNAKTTVYLQMNSLKPEETAVYYSNAVRRFASPSPHYYWGQGTQVTLSS | high polyreactivity
31 | QVQLVESGGGLVQAGGSLRLSCAASGRIFYPYAMGWYRQAPGKERELVAVISYSGGGTYYADSVKWRFTISRDNAKNTVYLQMNRMKPEDTAVYYCAAYADYSYYVYDYWGQGTQVTVSS | high polyreactivity
32 | QVQLVESGGGLVQAGGSLRLSCAASGSTFATYAMGWYRQAPGKERELVAAITRSGGITYYADSVKGRFTISRDNAKNTVYLQMNSLKPEDNAVYYCAKQYKWYGSRFYYWGQGTQVTVSS | high polyreactivity
33 | QVQLVESGGGLVQAGGRLRISCAASGSTFLDNAMGWYRQAPGKERELVASITSSGGNTYYADSVKGRFTISRDNAKNTVYLQMNRLKPEDTAVYYCAADAASYWGSNSANYDYDYWGQGTQVTVSS | low polyreactivity
34 | QVQLVESGGGLVQAGGSLRLSCAASGITLTRYAMGWYRQAPGKERELVAAISTGGGSTYYADSVKGRFTISRDNAKNTVYLQMNSLKPEDTAVYYCAARIRFARGYPITRTYDYWGQGTQVTVSS | high polyreactivity
35 | QVQLVESGGGLVQAGGSLRLSCAASGRTFRRYVMGWYRQAPGKERELVAAISYSGATTYYADSVKGRFTISRDNAKNTVYLQMNSLKPEDTAVYYCAATAPGDRYYWGQGTQVTVSS | high polyreactivity
36 | QVQLVESGGGLVQAGGSLRLSCAASGFIFSIYVMGWYRQAPGKERELVATISSTGSTNYADSVKGRFTISRDNAKNTVYLQMNSLKPEDTAVYYCAAYRRWWGQGTQVTVSS | high polyreactivity
37 | QVQLVESGGGLVQAGGSLRLSCAASGSIFAFNVMGWYRQAPGKERELVAAITWGGRTYYADSVKGRFTISRDNAKNTVYLQMNSLKPEDTAVYYCAAYPLYRVSHGYEYNYWGQGTQVTVSS | high polyreactivity
38 | QVQLVESGGGLVQAGGSLRLSCAASGSTFGNAMGWYRQAPGKERELVAAISGSGSDTYYADSVKGRFTISRDNAKNTVYLQMNSLKPEDTAVYYCNTGWDPYGYDYWGQGTQVTVSS | low polyreactivity
39 | QVQLVESGGGLVQAGGSHRLSCSASGITFYYYAMGWYRQAPGKERELVAAISRSGGRTYYADSVKGRFTISRDNAKNTVYLQMNSLKPEDTAVYYCAAVRYQGGDSSIEYDYWGQGTQVTVSW | high polyreactivity
40 | QVQLVESGGVLVQAGGSLRLICAASVFTFYSYAIGWYRQATGTERELVAGISRSGGSTYYADSVKGRFTISRDNAKNTVYLHMNRLKPEDTAVYYCNVRLRKKIQNSKYDYWGQGTQVSVSS | high polyreactivity

Reference: the nanobody polyreactivity screen of Harvey et al. (2022)
